B1: TRIM35 (parent)
chain: WEVQVSPTCPVCKDRASPADLRTN
B2: NEUROD6 (parent)
chain: YHSPELTTPPGHGTLDNSKSMKPY

Variants of: B1
Test: protein stability index of a GFP-peptide fusion (GPS, HEK-293T) (PSI 1-6); higher = more stable
Settings: c terminus: a fixed tail appended
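Note: lentivirally expressed fusions sorted by FACS into six bins by GFP to DsRed ratio, PSI derived from sequencing read proportions per bin multiplied by bin number.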

Protein stability index: each site, then its substitutions
V5: A 2.15, L 2.29, N 2.71, I 2.27, D 4.04, G 2.48, M 2.41, P 1.68, H 2.97, K 2.98
E2: H 2.51, C 2.46, F 1.72, M 1.41, G 2.56, K 2.42, R 1.98, W 1.68, I 2.45, T 2.02, V 2.21, P 2.12, A 2.48, N 2.3, D 2.2, S 2.58
W1: A 3.05, Q 3.1, M 2.75, D 3.25, F 2.85, E 3.52, I 2.08, C 3, G 2.92, T 2.79, P 3.29, K 3.54, L 3.13, S 2.6, V 3.4, H 3.37, R 3.66, Y 2.65, N 3.23
Q4: S 1.87, C 2.2, A 1.73, W 1.48, E 2.08, T 2.36, R 1.9, P 3.58, N 2.73, K 2.07, Y 3.38, L 2.08, V 2
V3: M 2.79, Q 2.96, Y 3.35, P 2.49, L 2.55, W 2.8, I 2.89, H 3.16, S 3.38, N 3.38, D 3.35, T 3.5, F 2.39, G 2.29, C 2.11, A 3.31, K 2.83, R 2.31

Variants of: B2
Test: as above
Settings: c terminus: a fixed tail appended

Protein stability index, by site and new letter:
M21: W 2.14, T 2.67, S 2.18, Y 1.54, L 2.44, E 2.35, V 2.42, H 2.56, F 2.18, C 2.42, Q 2.32, D 2.39, I 2.84, P 2.62, N 2.82, K 2.36, R 2.23, A 2.16, G 2.71
T14: R 2.07, K 2.07, A 2.44, H 2.24, D 2.27, C 1.9, G 1.87, W 2.37, M 2.33, Q 1.6, I 1.9, E 2.51, F 2.07, N 3.02, S 2.25, L 1.86, V 1.79, Y 1.77
L15: I 2.17, Q 2.77, F 1.77, M 1.9, V 2.26, E 2.12, H 2.36, S 2.35, N 2.46, G 2.24, D 2.69, C 2.1, T 3.01, W 1.82, Y 2.27, K 2.2, A 2.17, R 2
G11: L 2.31, Y 2.07, Q 2.28, T 2.08, S 2.17, E 2.67, R 2.29, F 1.73, N 2.39, I 2.21, V 1.96, W 1.98, K 2.5, H 1.99, M 2.48
P23: F 2.33, R 1.99, D 2.28, E 2.41, W 2.67, I 1.69, Y 1.77, C 1.87, H 2.24, T 1.77, S 1.9, N 2.36, K 2.33, V 2.18, Q 2.08, L 2.44, A 2.36, M 1.98, G 2.23
S18: K 2.43, N 2.54

From the supplement of paper PMC10567573
